Data as given in US9958461B2, “Detection of protein to protein interactions” (THE GOVERNING COUNCIL OF THE UNIVERSITY OF TORONTO, priority 2013, dated 2018).

B1: TAB1 (protein, UniProt Q15750 1-504, looked up)
TGF-beta-activated kinase 1 …: MAAQRRSLLQSEQQPSWTDDLPLCHLSGVGSASNRSYSADGKGTESHPPEDSWLKFRSENNCFLYGVFNGYDGNRVTNFVAQRLSAELLLGQLNAEHAEADVRRVLLQAFDVVERSFLESIDDALAEKASLQSQLPEGVPQHQLPPQYQKILERLKTLEREISGGAMAVVAVLLNNKLYVANVGTNRALLCKSTVDGLQVTQLNVDHTTENEDELFRLSQLGLDAGKIKQVGIICGQESTRRIGDYKVKYGYTDIDLLSAAKSKPIIAEPEIHGAQPLDGVTGFLVLMSEGLYKALEAAHGPGQANQEIAAMIDTEFAKQTSLDAVAQAVVDRVKRIHSDTFASGGERARFCPRHEDMTLLVRNFGYPLGEMSQPTPSPAPAAGGRVYPVSVPYSSAQSTSKTSVTLSLVMPSQGQMVNGAHSASTLDEATPTLTNQSPTLTLQSTNTHTQSSSSSSDGGLFRSRPAHSLPPGEDGRVEPYVDFAEFYRLWSVDHGEQSVVTAP
B2: Cdh1 (protein, UniProt P12830 155-882, looked up)
Cadherin-1: DWVIPPISCPENEKGPFPKNLVQIKSNKDKEGKVFYSITGQGADTPPVGVFIIERETGWLKVTEPLDRERIATYTLFSHAVSSNGNAVEDPMEILITVTDQNDNKPEFTQEVFKGSVMEGALPGTSVMEVTATDADDDVNTYNAAIAYTILSQDPELPDKNMFTINRNTGVISVVTTGLDRESFPTYTLVVQAADLQGEGLSTTATAVITVTDTNDNPPIFNPTTYKGQVPENEANVVITTLKVTDADAPNTPAWEAVYTILNDDGGQFVVTTNPVNNDGILKTAKGLDFEAKQQYILHVAVTNVVPFEVSLTTSTATVTVDVLDVNEAPIFVPPEKRVEVSEDFGVGQEITSYTAQEPDTFMEQKITYRIWRDTANWLEINPDTGAISTRAELDREDFEHVKNSTYTALIIATDNGSPVATGTGTLLLILSDVNDNAPIPEPRTIFFCERNPKPQVINIIDADLPPNTSPFTAELTHGASANWTIQYNDPTQESIILKPKMALEVGDYKINLKLMDNQNKDQVTTLEVSVCDCEGAAGVCRKAQPVEAGLQIPAILGILGGILALLILILLLLLFLRRRAVVKEPLLPPEDDTRDNVYYYDEEGGGEEDQDFDLSQLHRGLDARPEVTRNDVAPTLMSVPRYLPRPANPDEIGNFIDENLKAADTDPTAPPYDSLLVFDYEGSGSEAASLSSLNSSESDKDQDYDYLNEWGNRFKKLADMYGGGEDD
B3: STAT5A (protein, UniProt P42229 1-794, looked up)
Signal transducer and …: MAGWIQAQQLQGDALRQMQVLYGQHFPIEVRHYLAQWIESQPWDAIDLDNPQDRAQATQLLEGLVQELQKKAEHQVGEDGFLLKIKLGHYATQLQKTYDRCPLELVRCIRHILYNEQRLVREANNCSSPAGILVDAMSQKHLQINQTFEELRLVTQDTENELKKLQQTQEYFIIQYQESLRIQAQFAQLAQLSPQERLSRETALQQKQVSLEAWLQREAQTLQQYRVELAEKHQKTLQLLRKQQTIILDDELIQWKRRQQLAGNGGPPEGSLDVLQSWCEKLAEIIWQNRQQIRRAEHLCQQLPIPGPVEEMLAEVNATITDIISALVTSTFIIEKQPPQVLKTQTKFAATVRLLVGGKLNVHMNPPQVKATIISEQQAKSLLKNENTRNECSGEILNNCCVMEYHQATGTLSAHFRNMSLKRIKRADRRGAESVTEEKFTVLFESQFSVGSNELVFQVKTLSLPVVVIVHGSQDHNATATVLWDNAFAEPGRVPFAVPDKVLWPQLCEALNMKFKAEVQSNRGLTKENLVFLAQKLFNNSSSHLEDYSGLSVSWSQFNRENLPGWNYTFWQWFDGVMEVLKKHHKPHWNDGAILGFVNKQQAHDLLINKPDGTFLLRFSDSEIGGITIAWKFDSPERNLWNLKPFTTRDFSIRSLADRLGDLSYLIYVFPDRPKDEVFSKYYTPVLAKAVDGYVKPQIKQVVPEFVNASADAGGSSATYMDQAPSPAVCPQAPYNMYPQNPDHVLDQDGEFDLDETMDVARHVEELLRRPMDSLDSRLSPPAGLFTSARGSLS

These molecules were tested against T1, EGFR-Wt (Homo sapiens, UniProt P00533) (assay: MaMTH EGFR-interactor screen, lentiviral preys against EGFR-wildtype bait (interaction score)). Conditions: MaMTH interaction score of prey with EGFR-Wt bait, mean.
T1 construct: with the advantage of testing full-length integral membrane proteins; (GGGGS)2 linker-Cub (human ubiquitin aa 35-76)-GAL4(1-147)-mNFkB(364-550) (C); expressed in transfected cells
Format: cell-based
Protocol: (§1) After lentivirus harvest, target cells (stable 5×GAL4UAS-luciferase reporter-HEK293T cells) were infected at a multiplicity of infection (MOI) of around 0.3-0.4 to ensure single copy integration per cell. Cells were selected in puromycin for at least 48 h and transfected with either EGFR-wildtype or EGFR-L858R baits in triplicates. 24 h after transfection, cells were lysed and luciferase assays performed. On each set of interaction assays, various negative controls were included. To calculate a MaMTH-interaction scores, negative controls were averaged and the fold-change of luciferase activity compared to the averaged controls was calculated and defined as the interaction score.
(§2) Each set of experiments contains a defined set of negative controls in at least three replicates. Negative controls were chosen as such that there is a range of controls showing high-background luciferase activity (normally cytosolic proteins: Fabp5, Pex19) as well as medium-background luciferase activity (membrane-bound interactors: Pex7, GABBR2). Negative controls were averaged and the fold-change of luciferase activity was calculated. Using this method, we have a stringent cut-off and chose an interaction score >1 to be interacting proteins.
(§3) Our cut-off of 1 is based on fold-change difference in luciferase activity over averaged negative controls. Negative controls include cytosolic preys (which tend to promiscuously bind to many proteins), plasma membrane- and peroxisomal-prey proteins. In general, we chose stringent conditions by testing preys that tend to have high luciferase background with any bait tested, in order to generate high-confidence interaction data. […] Phosphorylated tyrosine residues on the receptor are typically docking sites for downstream cytoplasmic targets and recognized through SH2 or PTB domains^43.

| EGFR-Wt mean | Molecule |
| --- | --- |
| 5.84 | B1 |
| 2.14 | B2 |
| 3.12 | B3 |

These molecules were tested on EGFR-Wt in the same assay as above. Conditions: ratio of EGFR-Wt mean to EGFR-L858R mean interaction score.
Format: cell-based, human
Protocol: as §1, §2, §3

| Molecule | Wt/L858R |
| --- | --- |
| B1 | 0.98 |
| B2 | 0.94 |
| B3 | 0.96 |

Each molecule was assayed against T2, EGFR-L858R (Homo sapiens, UniProt P00533, L858R) (assay: MaMTH EGFR-interactor screen, lentiviral preys against EGFR-L858R bait (interaction score)). Conditions: MaMTH interaction score of prey with EGFR-L858R bait.
T2 construct: with the advantage of testing full-length integral membrane proteins; (GGGGS)2 linker-Cub (human ubiquitin aa 35-76)-GAL4(1-147)-mNFkB(364-550) (C); expressed in transfected cells
Format: cell-based
Protocol: as §1, §2, §3

| EGFR-L858R mean | Molecule |
| --- | --- |
| 5.95 | B1 |
| 2.27 | B2 |
| 3.26 | B3 |
